Measured values from publication PMC2884007.

Tests used:
[1] = target: Mimivirus cyclophilin (mimicyp), full length wild type (Mimivirus) (UniProt Q5UP71); assay: SEC + other: NMR
[2] = target: Mimivirus cyclophilin (mimicyp), full length wild type (Mimivirus) (UniProt Q5UP71); assay: crystal structure

## Mimivirus cyclophilin (mimicyp), full length wild type (from UniProt Q5UP71 1-234) (natural protein)
[1]
  Kd: 50 to 500 µM
[2]
  stoichiometry N: 3
